Assay results taken from US8911953B2, “TDF-related compounds and analogs thereof, analogs and bioactive fragments” (Thrasos Innovation, Inc., priority 2005, dated 2014).
Read-outs that look alike come from different tables or passages of the source. Each block holds one molecule with its values, some of them ahead of it. Positions of bridges follow the written chain, without caps; N, C: chain ends. No end group written: not given here.

Key:
[1] = test system: bladder cancer cells (5637); assay: Cisplatin-induced apoptosis/necrosis in bladder cancer cells; assay type: cell-based, human; settings: cisplatin at different concentrations
[2] = test system: rat osteosarcoma (17/2.8) cells; assay: Rat osteosarcoma (ROS) cell-based alkaline phosphatase assay; settings: 0.02-200 uM, 2 days, relative to BMP-7 standard
Procedure: BMP interactions with Type I and Type II receptors can induce alkaline phosphatase activity, a marker for osteoblast activity, in ROS cells. An assay procedure as described in Maliakal, J. C., Asahina, I., Hauschka, P. V., and Sampath, T. K. (1994) Growth factors 11, 227-234, was used to determine the biological activities of TDFRP compounds. In a typical experiment, rat osteosarcoma (17/2.8) cells are plated in 96 well plates (3.0×10^4 cells/well) and incubated overnight at 37 C in 5-6% CO2 incubator. The next day, healthy and confluent cells are treated with increasing concentrations of BMP-7 standard (1-10,000 ng/ml) served as positive control or TDFRP compounds (0.02-200 uM) prepared in medium containing 1% FBS and incubated for 2 days at 37 C in 5-6% CO2 incubator. The cellular content of alkaline phosphatase activity is determined by the method of Reddi and Huggins (Reddi, A. H., and Huggins, C. B (1972) Proc. Natl. Acad. Sci. USA 69, 1601-1605). Enzyme estimations are performed in 96 well plates. Following removal of culture medium, cells are washed with pre-warmed PBS (150 ul) and incubated in 100 ul of pre-warmed 1% Triton X-100 for 30 minutes at 37 C. Plates are centrifuged for 10 minutes at full speed, and recovered samples (15 ul) are assayed for enzyme activity by adding 90 ul p-nitrophenyl phosphate (Sigma) as a substrate in 0.05 M glycine-NaOH buffer, pH 9.3 and incubating for 20 minutes at 37 C. The reaction is stopped by adding 75 ul of 0.2 N NaOH/well and absorbance at 405/490 nm is measured on a Dynatech MR 700 plate reader. Results are expressed as relative activities compared to a BMP-7 standard.
BMP interactions with Type I and Type II receptors can induce alkaline phosphatase activity, a marker for osteoblast activity, in ROS cells. An assay procedure as described earlier (Maliakal, J. C., Asahina, I., Hauschka, P. V., and Sampath, T. K. (1994) Growth factors 11, 227-234) was used to determine the biological activities of TDFRP compounds. In a typical experiment, rat osteosarcoma (17/2.8) cells are plated in 96 well plates (3.0×10^4 cells/well) and incubated overnight at 37° C. in 5-6% CO2 incubator. […] The cellular content of alkaline phosphatase activity is determined by the method of Reddi and Huggins (Reddi, A. H., and Huggins, C. B (1972) Proc. Natl. Acad. Sci. USA 69, 1601-1605). […] The reaction is stopped by adding 75 ul of 0.2 N NaOH/well and absorbance at 405/490 nm is measured on a Dynatech MR 700 plate reader. Results are expressed as relative activities compared to a BMP-7 standard.

ALK-3 = ALK-3 (Homo sapiens, UniProt P36894); assay: Radioligand receptor binding assay (competition with 125I-labeled TDF-1)
Text: Radioligand Receptor Binding Assays for ALK-3, ALK-6 and BMPR-2:
The assays are based on competition between ^125I-labeled TDF-1 (BMP-7 or OP-1 or other BMPs) and candidate TDFRP compounds or unlabeled TDF-1 for binding to respective receptors (ALK-3, ALK-6 or BMPR-2 or other BMP receptors or co-receptors). In brief, the procedure involves immobilization of receptor on 96 well Removawell plates, blocking the wells with 3% BSA in PBS and subsequently washing the wells. Increasing concentrations of unlabeled TDF-1 or TDFRP compounds or control (unlabeled TDF-1) prepared in binding buffer are then added. Incubate plate for 1 hour at room temperature, and then add a fixed amount of ^125I-labeled TDF-1 (250,000 to 350,000 cpm) to the wells and further incubate in cold (4° C.) for 20 hours. Aspirate the contents of the wells and wash the wells four times with a wash buffer, and count the receptor bound ^125I-labeled TDF-1 in an auto gamma counter.
Using this procedure, TDFRP compound binding to select ALK receptors are assessed. Accordingly, TDFRP compounds that preferentially bind select ALK receptors can be identified. For example, TDFRP compounds that preferentially bind to ALK-3 receptor compared with binding to other ALK receptors, e.g., ALK-6 (FIGS. 1, 15).
A. Radioligand Receptor Binding Assays For ALK-3, ALK-6 and BMPR-2: […]

NTN mice = settings: cited from earlier work

Chain of ALK-3 (P36894 24-532, species assumed): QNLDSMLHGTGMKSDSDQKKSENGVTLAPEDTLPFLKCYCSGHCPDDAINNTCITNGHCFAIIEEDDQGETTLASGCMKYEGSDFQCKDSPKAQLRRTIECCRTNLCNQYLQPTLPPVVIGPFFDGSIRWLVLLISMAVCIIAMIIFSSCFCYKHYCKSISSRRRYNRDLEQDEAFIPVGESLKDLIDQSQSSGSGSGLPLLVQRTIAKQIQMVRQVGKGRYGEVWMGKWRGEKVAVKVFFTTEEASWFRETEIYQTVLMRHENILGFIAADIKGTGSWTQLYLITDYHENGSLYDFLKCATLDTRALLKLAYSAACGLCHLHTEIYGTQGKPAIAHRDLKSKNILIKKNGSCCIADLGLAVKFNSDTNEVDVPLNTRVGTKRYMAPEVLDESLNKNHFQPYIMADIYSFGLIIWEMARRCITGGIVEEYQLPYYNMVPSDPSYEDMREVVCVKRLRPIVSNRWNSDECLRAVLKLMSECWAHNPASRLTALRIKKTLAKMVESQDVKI

- binding to BMP Type I ALK-3 receptor compared to ALK-6 receptor (ALK-3): binds preferentially
- binding to BMP Type I ALK-3 receptor compared to ALK-6 receptor (ALK-3; listed as SEQ ID NO 45): selectively binds
Molecule: CYFDDSSNVLCKKYRS (disulfide 1-11 (inferred); not fully specified) [SEQ ID NO:45]
- apoptosis/necrosis induced by cisplatin (interference with anti-tumor activity) [1]: does not alter
- induction of alkaline phosphatase activity [2]: did not induce

B1: BMP-7: recombinant human mature BMP-7 (BMP-7 or TDF-1), positive control therapy (protein)
chain: STGSKQRSQNRSKTPKNQEALRMANVAENSSSDQRQACKKHELYVSFRDLGWQDWIIAPEGYAAYYCEGECAFPLNSYMNATNHAIVQTLVHFINPETVPKPCCAPTQLNAISVLYFDDSSNVILKKYRNMVVRACGCH
- progression to chronic renal disease (NTN mice; about 300 micrograms/kg, starting after one week of NTN): prevent progression to chronic renal disease
- renal pathology (NTN mice; treatment from week 3 or week 4 through week 6): almost completely reversed renal pathology
